The supplement of paper PMC7877785
± gives the uncertainty stated by the source.

Test: self-splicing fitness, log relative to wild type (ln ratio); higher = more splicing; Tetrahymena group I intron in knt gene, E. coli kanamycin selection, DiMSum; sequences stand for … in CUCUCU…GGAGGGAAAAGUUAUCAGGCAUGCACCUGGUAGCUAGUCUUUAAACCAAUAGAUUGCAUCGGUUUAAAAGGCAAGACCGUCAAAUUGCGGGAAAGGGGUCAACAGCCGUUCAGUACCAAGUCUCAGGGGAAACUUUGAGAUGGCCUUGCAAAGGGUAUGGUAAUAAGCUGACGGACAUGGUCCUAACCACGCAGCCAAGUCCUAAGUCAACAGAUCUUCUGUUGAUAUGGAUGCAGUUCACAGACUAAAUGUCGGUCGGGGAAGAUGUAUUCUUCUCAUAAGAUAUAGUCGGACCUCUCCUUAAUGGGAGCUAGCGGAUGAAGUGAUGCAACACUGGAGCCGCUGGGAACUAAUUUGUAUGCGAAAGUAUAUUGAUUAGUUUUGGAGUACUCGUGGUCG
Procedure, shortened: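 Colonies from six replicate transformations of E. coli BL21(DE3) were pooled and amplicon-sequenced on an Illumina HiSeq 2500. The library placed an intron with all eight P1ex-region nucleotides randomised inside the knt kanamycin-resistance gene on pET-22b(+), and cells grew overnight at 37°C or 30°C on LB agar with or without 25 μg/mL kanamycin (plus 100 μg/mL carbenicillin, 50 μM IPTG, 0.2% rhamnose). Fitness is the DiMSum error-weighted combination of wild-type-normalised replicate fold changes, kanamycin versus none.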

## ACUCAGCAAUAUUACGUAGA
30 °C
  self-splicing fitness (ln): -1.41 ± 0.066
37 °C
  self-splicing fitness (ln): -0.457 ± 0.092

## GGUUAGCAAUAUUACGCCGG
30 °C
  self-splicing fitness (ln): -2.48 ± 0.5
37 °C
  self-splicing fitness (ln): -3.55 ± 0.42

## AAACAGCAAUAUUACGUCCU
30 °C
  self-splicing fitness (ln): -0.281 ± 0.07
37 °C
  self-splicing fitness (ln): 0.347 ± 0.094

## GUCAAGCAAUAUUACGGAAC
30 °C
  self-splicing fitness (ln): -3.13 ± 0.24
37 °C
  self-splicing fitness (ln): -3.19 ± 0.21

## UGACAGCAAUAUUACGAUCG
30 °C
  self-splicing fitness (ln): 0.0362 ± 0.077
37 °C
  self-splicing fitness (ln): 0.761 ± 0.1

## GCGGAGCAAUAUUACGGAAG
37 °C
  self-splicing fitness (ln): -2.11 ± 0.36

## CUUCAGCAAUAUUACGGCGG
30 °C
  self-splicing fitness (ln): -2.02 ± 0.27
37 °C
  self-splicing fitness (ln): -1.25 ± 0.18

## CUAAAGCAAUAUUACGAGUA
30 °C
  self-splicing fitness (ln): -3.16 ± 0.3
37 °C
  self-splicing fitness (ln): -2.73 ± 0.36

## UGCAAGCAAUAUUACGGUCC
30 °C
  self-splicing fitness (ln): -1.81 ± 0.057
37 °C
  self-splicing fitness (ln): -1.16 ± 0.084

## UACCAGCAAUAUUACGGGGG
30 °C
  self-splicing fitness (ln): -2.5 ± 0.14
37 °C
  self-splicing fitness (ln): -1.77 ± 0.13

## UGGGAGCAAUAUUACGGGAC
30 °C
  self-splicing fitness (ln): -4.71 ± 0.46
37 °C
  self-splicing fitness (ln): -2.7 ± 0.38

## CUCGAGCAAUAUUACGGUAA
30 °C
  self-splicing fitness (ln): -3.49 ± 0.25
37 °C
  self-splicing fitness (ln): -1.88 ± 0.24

## AUCUAGCAAUAUUACGACUU
30 °C
  self-splicing fitness (ln): -0.1 ± 0.074
37 °C
  self-splicing fitness (ln): 0.24 ± 0.092

## CGACAGCAAUAUUACGGGUG
30 °C
  self-splicing fitness (ln): -0.537 ± 0.043
37 °C
  self-splicing fitness (ln): 0.0253 ± 0.063

## GAACAGCAAUAUUACGCCCG
30 °C
  self-splicing fitness (ln): -2.49 ± 0.22
37 °C
  self-splicing fitness (ln): -0.797 ± 0.2

## CAGGAGCAAUAUUACGCGUG
30 °C
  self-splicing fitness (ln): -3.2 ± 0.16
37 °C
  self-splicing fitness (ln): -2.42 ± 0.17

## UAAGAGCAAUAUUACGUAUG
30 °C
  self-splicing fitness (ln): -5.26 ± 0.45
37 °C
  self-splicing fitness (ln): -2.47 ± 0.34

## AUGUAGCAAUAUUACGACAG
30 °C
  self-splicing fitness (ln): 0.106 ± 0.081
37 °C
  self-splicing fitness (ln): 0.358 ± 0.095

## CAGUAGCAAUAUUACGGAAC
37 °C
  self-splicing fitness (ln): -2.72 ± 0.43

## UGUUAGCAAUAUUACGAUCA
30 °C
  self-splicing fitness (ln): -0.0398 ± 0.15
37 °C
  self-splicing fitness (ln): 0.805 ± 0.15

## ACGGAGCAAUAUUACGUCAC
30 °C
  self-splicing fitness (ln): -3.48 ± 0.31
37 °C
  self-splicing fitness (ln): -2.42 ± 0.45

## AGUCAGCAAUAUUACGCGAC
30 °C
  self-splicing fitness (ln): -2.59 ± 0.26
37 °C
  self-splicing fitness (ln): -3.14 ± 0.35

## CCGGAGCAAUAUUACGUGGU
30 °C
  self-splicing fitness (ln): -3.01 ± 0.2
37 °C
  self-splicing fitness (ln): 0.658 ± 0.18

## GAAGAGCAAUAUUACGCCUG
30 °C
  self-splicing fitness (ln): -0.984 ± 0.19
37 °C
  self-splicing fitness (ln): -0.756 ± 0.35

## GACGAGCAAUAUUACGUGUU
30 °C
  self-splicing fitness (ln): -3.18 ± 0.16
37 °C
  self-splicing fitness (ln): -3.09 ± 0.19

## UGUUAGCAAUAUUACGUCUG
30 °C
  self-splicing fitness (ln): -0.698 ± 0.12
37 °C
  self-splicing fitness (ln): 0.393 ± 0.15

## UGAAAGCAAUAUUACGUUAC
30 °C
  self-splicing fitness (ln): -3.44 ± 0.25
37 °C
  self-splicing fitness (ln): -2.35 ± 0.21

## GACUAGCAAUAUUACGACCA
30 °C
  self-splicing fitness (ln): -0.781 ± 0.17
37 °C
  self-splicing fitness (ln): 0.287 ± 0.18

## UUUUAGCAAUAUUACGUGUG
30 °C
  self-splicing fitness (ln): -2.29 ± 0.16
37 °C
  self-splicing fitness (ln): -1.17 ± 0.15

## GGCAAGCAAUAUUACGAUAG
30 °C
  self-splicing fitness (ln): -2.73 ± 0.19
37 °C
  self-splicing fitness (ln): -2.18 ± 0.14

## UCGCAGCAAUAUUACGAUCG
30 °C
  self-splicing fitness (ln): -0.735 ± 0.092
37 °C
  self-splicing fitness (ln): -0.359 ± 0.12

## GUCAAGCAAUAUUACGACGC
30 °C
  self-splicing fitness (ln): -1.35 ± 0.11
37 °C
  self-splicing fitness (ln): 0.832 ± 0.18

## CCAAAGCAAUAUUACGUUCG
30 °C
  self-splicing fitness (ln): -0.496 ± 0.055
37 °C
  self-splicing fitness (ln): 0.165 ± 0.069

## AUGCAGCAAUAUUACGUCCG
30 °C
  self-splicing fitness (ln): -2.16 ± 0.11
37 °C
  self-splicing fitness (ln): -1.27 ± 0.14

## GGUCAGCAAUAUUACGUUGG
30 °C
  self-splicing fitness (ln): -3.35 ± 0.21
37 °C
  self-splicing fitness (ln): -2.51 ± 0.2

## GUAGAGCAAUAUUACGUUCA
30 °C
  self-splicing fitness (ln): -0.476 ± 0.1
37 °C
  self-splicing fitness (ln): -0.627 ± 0.11

## CUCGAGCAAUAUUACGGGGA
30 °C
  self-splicing fitness (ln): -2.71 ± 0.2
37 °C
  self-splicing fitness (ln): -1.17 ± 0.18

## UAUCAGCAAUAUUACGGGUC
30 °C
  self-splicing fitness (ln): -2.27 ± 0.12
37 °C
  self-splicing fitness (ln): -1.3 ± 0.12

## UUCUAGCAAUAUUACGAUAG
37 °C
  self-splicing fitness (ln): -2.05 ± 0.36

## AUUCAGCAAUAUUACGGAUC
30 °C
  self-splicing fitness (ln): -3.24 ± 0.11
37 °C
  self-splicing fitness (ln): -2.53 ± 0.18

## GCACAGCAAUAUUACGCUCC
30 °C
  self-splicing fitness (ln): -1.27 ± 0.16
37 °C
  self-splicing fitness (ln): 0.155 ± 0.17

## GUAGAGCAAUAUUACGCGUA
30 °C
  self-splicing fitness (ln): -1.64 ± 0.2
37 °C
  self-splicing fitness (ln): -0.093 ± 0.25

## UUAGAGCAAUAUUACGAUUG
30 °C
  self-splicing fitness (ln): -1.95 ± 0.11
37 °C
  self-splicing fitness (ln): -0.556 ± 0.14

## UGCUAGCAAUAUUACGUAGU
30 °C
  self-splicing fitness (ln): -3.35 ± 0.2
37 °C
  self-splicing fitness (ln): -2.71 ± 0.25

## UAGGAGCAAUAUUACGUCUU
30 °C
  self-splicing fitness (ln): -3.16 ± 0.34
37 °C
  self-splicing fitness (ln): -0.955 ± 0.23

## UCGCAGCAAUAUUACGGCAG
30 °C
  self-splicing fitness (ln): -0.619 ± 0.1
37 °C
  self-splicing fitness (ln): -0.379 ± 0.11

## UUUUAGCAAUAUUACGCUUU
30 °C
  self-splicing fitness (ln): -3.71 ± 0.28
37 °C
  self-splicing fitness (ln): -1.23 ± 0.16

## CGCGAGCAAUAUUACGUUAG
30 °C
  self-splicing fitness (ln): -3.74 ± 0.21
37 °C
  self-splicing fitness (ln): -1.33 ± 0.18

## AGUAAGCAAUAUUACGGCUA
30 °C
  self-splicing fitness (ln): 0.0253 ± 0.081
37 °C
  self-splicing fitness (ln): 0.0684 ± 0.094

## ACAAAGCAAUAUUACGGGGU
30 °C
  self-splicing fitness (ln): -3.15 ± 0.16
37 °C
  self-splicing fitness (ln): -2.59 ± 0.18

## CGCAAGCAAUAUUACGAUGG
30 °C
  self-splicing fitness (ln): -0.351 ± 0.081
37 °C
  self-splicing fitness (ln): -0.239 ± 0.095

## GCAAAGCAAUAUUACGCAUG
30 °C
  self-splicing fitness (ln): -3.61 ± 0.22
37 °C
  self-splicing fitness (ln): -2.97 ± 0.27

## CCGUAGCAAUAUUACGUCAG
30 °C
  self-splicing fitness (ln): -1.26 ± 0.077
37 °C
  self-splicing fitness (ln): -1.55 ± 0.089

## CGCUAGCAAUAUUACGUCAU
30 °C
  self-splicing fitness (ln): -3.97 ± 0.35
37 °C
  self-splicing fitness (ln): -1.25 ± 0.19

## CCAAAGCAAUAUUACGUCUC
30 °C
  self-splicing fitness (ln): -3.08 ± 0.13
37 °C
  self-splicing fitness (ln): -2.89 ± 0.092

## GUCUAGCAAUAUUACGUAGA
30 °C
  self-splicing fitness (ln): -1.69 ± 0.14
37 °C
  self-splicing fitness (ln): -0.93 ± 0.2

## AGCGAGCAAUAUUACGAAGA
37 °C
  self-splicing fitness (ln): -2.72 ± 0.34

## GAACAGCAAUAUUACGGGCG
30 °C
  self-splicing fitness (ln): -1.68 ± 0.086
37 °C
  self-splicing fitness (ln): -0.0108 ± 0.097

## GCGAAGCAAUAUUACGCGGC
30 °C
  self-splicing fitness (ln): -3.23 ± 0.22
37 °C
  self-splicing fitness (ln): -2.35 ± 0.25

## ACCCAGCAAUAUUACGGGCA
30 °C
  self-splicing fitness (ln): 0.0145 ± 0.067
37 °C
  self-splicing fitness (ln): -0.0091 ± 0.077

## CCCGAGCAAUAUUACGGGGC
30 °C
  self-splicing fitness (ln): -3.75 ± 0.19
37 °C
  self-splicing fitness (ln): -2.74 ± 0.17
